Measurements reported in publication PMC11117730 (2024).
Read-outs that look alike come from different tables or passages of the source.

How the values were obtained:
Experiment in all cases: SPR
anti-IL-17A = biological target: anti-IL-17A
anti-IL-17A-sST2 [1] = biological target: T1, anti-IL-17A-sST2 (mouse, UniProt P14719 27-332)
mouse IL-33 = biological target: T2, mouse IL-33 (mouse, UniProt Q8BVZ5 1-266)
T2 chain: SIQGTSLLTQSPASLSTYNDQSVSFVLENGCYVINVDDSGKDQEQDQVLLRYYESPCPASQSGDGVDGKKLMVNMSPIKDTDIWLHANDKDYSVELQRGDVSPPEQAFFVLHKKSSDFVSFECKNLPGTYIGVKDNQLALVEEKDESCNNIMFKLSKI

anti-IL-17A-sST2 [2] = biological target: T1, anti-IL-17A-sST2; remark: listed apart in the source

B1: mouse IL-17A (protein)
chain: AAIIPQSSACPNTEAKDFLQNVKVNLKVFNSLGAKVSSRRPSDYLNRSTSPWTLHRNEDPDRYPSVIWEAQCRHQRCVNAEGKLDHHMNSVLIQQEILVLKREPESCPFTFRVEKMLVGVGCTCVASIVRQAA
anti-IL-17A
  Kd: 0.0265 nM
  koff: 1.57e-05 s⁻¹
anti-IL-17A-sST2 [1]
  Kd: 0.0457 nM
  koff: 2.17e-05 s⁻¹

B2: sST2-Fc (Fc fusion)
chain: SKSSWGLENEALIVRCPQRGRSTYPVEWYYSDTNESIPTQKRNRIFVSRDRLKFLPARVEDSGIYACVIRSPNLNKTGYLNVTIHKKPPSCNIPDYLMYSTVRGSDKNFKITCPTIDLYNWTAPVQWFKNCKALQEPRFRAHRSYLFIDNVTHDDEGDYTCQFTHAENGTNYIVTATRSFTVEEKGFSMFPVITNPPYNHTMEVEIGKPASIACSACFGKGSHFLADVLWQINKTVVGNFGEARIQEEEGRNESSSNDMDCLTSVLRITGVTEKDLSLEYDCLALNLHGMIRHTIRLRRKQPIDHR
Mouse IL-33
  koff: 0.000199 s⁻¹

B3: mouse IL-33 (ligand)
chain: MRPRMKYSNSKISPAKFSSTAGEALVPPCKIRRSQQKTKEFCHVYCMRLRSGLTIRKETSYFRKEPTKRYSLKSGTKHEENFSAYPRDSRKRSLLGSIQAFAASVDTLSIQGTSLLTQSPASLSTYNDQSVSFVLENGCYVINVDDSGKDQEQDQVLLRYYESPCPASQSGDGVDGKKLMVNMSPIKDTDIWLHANDKDYSVELQRGDVSPPEQAFFVLHKKSSDFVSFECKNLPGTYIGVKDNQLALVEEKDESCNNIMFKLSKI
anti-IL-17A-sST2 [2]
  koff: 0.000143 s⁻¹
